In publication PMC2825244:

Molecular target: Chemokine receptor four (CXCR4) (human (endogenous in JJ)) (UniProt P61073)
Sequence of UniProt P61073 (P61073 whole entry): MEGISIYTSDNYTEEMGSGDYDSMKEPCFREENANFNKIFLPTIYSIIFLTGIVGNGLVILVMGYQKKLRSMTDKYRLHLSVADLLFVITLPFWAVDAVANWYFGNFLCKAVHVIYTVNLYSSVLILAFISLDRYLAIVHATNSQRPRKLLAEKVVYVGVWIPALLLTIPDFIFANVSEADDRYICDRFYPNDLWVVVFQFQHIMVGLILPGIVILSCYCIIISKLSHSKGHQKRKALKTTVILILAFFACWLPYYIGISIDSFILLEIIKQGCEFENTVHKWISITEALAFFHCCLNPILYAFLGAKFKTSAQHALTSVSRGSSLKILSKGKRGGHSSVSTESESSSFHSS

MMP1 mRNA (qRT-PCR, fold) in JJ cells in hypoxia with SDF1 10 ng/ml, against 9 fold by hypoxia alone; the SDF1 mediated increase was blocked by the CXCR4 inhibitor AMD3100 0.1 μM: 23 fold
Substance: human recombinant SDF-1 (stromal cell derived factor one) (from UniProt P48061 22-93) (ligand)
